Source: paper PMC6231261, “Enhanced triacylglycerol production in the diatom Phaeodactylum tricornutum by inactivation of a Hotdog-fold thioesterase gene using TALEN-based targeted mutagenesis” (Biotechnology for Biofuels, 2018)

Columns and labels:
Assay in all cases: DTNB spectrophotometric CoA release (A412)
Type in all cases: biochemical, Phaeodactylum tricornutum
[1] = substrate: CC/C=C\C/C=C\C/C=C\C/C=C\C/C=C\CCCC(=O)SCCNC(=O)CCNC(=O)[C@H](O)C(C)(C)COP(=O)(O)OP(=O)(O)OC[C@H]1O[C@@H](n2cnc3c(N)ncnc32)[C@H](O)[C@@H]1OP(=O)(O)O; settings: 10 mM HEPES pH 7.5, 50 mM KCl, 0.3 mM DTNB, room temperature in methods (37 °C in Fig. 1 legend)
From the text: (§1) DTNB spectrophotometric CoA release (A412) on ptTES1

[2] = substrate: CCCCCCCCCCCCCC(=O)SCCNC(=O)CCNC(=O)[C@H](O)C(C)(C)COP(=O)(O)OP(=O)(O)OC[C@H]1O[C@@H](n2cnc3c(N)ncnc32)[C@H](O)[C@@H]1OP(=O)(O)O; settings: 10 mM HEPES pH 7.5, 50 mM KCl, 0.3 mM DTNB, room temperature in methods (37 °C in Fig. 1 legend)
From the text: as §1

[3] = substrate: CCCCCCCCCCCCCCCC(=O)SCCNC(=O)CCNC(=O)[C@H](O)C(C)(C)COP(=O)(O)OP(=O)(O)OC[C@H]1O[C@@H](n2cnc3c(N)ncnc32)[C@H](O)[C@@H]1OP(=O)(O)O; settings: 10 mM HEPES pH 7.5, 50 mM KCl, 0.3 mM DTNB, room temperature in methods (37 °C in Fig. 1 legend), substrate inhibition above 60 μM
From the text: as §1

[4] = substrate: CC(C)(COP(=O)(O)OP(=O)(O)OC[C@H]1O[C@@H](n2cnc3c(N)ncnc32)[C@H](O)[C@@H]1OP(=O)(O)O)[C@@H](O)C(=O)NCCC(=O)NCCSC(=O)CC(=O)O; settings: 10 mM HEPES pH 7.5, 50 mM KCl, 0.3 mM DTNB, room temperature in methods (37 °C in Fig. 1 legend)
From the text: as §1

[5] = substrate: CCCCCCCC/C=C\CCCCCCCC(=O)SCCNC(=O)CCNC(=O)[C@H](O)C(C)(C)COP(=O)(O)OP(=O)(O)OC[C@H]1O[C@@H](n2cnc3c(N)ncnc32)[C@H](O)[C@@H]1OP(=O)(O)O; settings: 10 mM HEPES pH 7.5, 50 mM KCl, 0.3 mM DTNB, room temperature in methods (37 °C in Fig. 1 legend), substrate inhibition above 60 μM
From the text: as §1

[6] = substrate: CCCCCCCCCC(=O)SCCNC(=O)CCNC(=O)[C@H](O)C(C)(C)COP(=O)(O)OP(=O)(O)OC[C@H]1O[C@@H](n2cnc3c(N)ncnc32)[C@H](O)[C@@H]1OP(=O)(O)O; settings: 10 mM HEPES pH 7.5, 50 mM KCl, 0.3 mM DTNB, room temperature in methods (37 °C in Fig. 1 legend)
From the text: as §1

[7] = substrate: CCCCCCCCCCCCCCCCCC(=O)SCCNC(=O)CCNC(=O)[C@H](O)C(C)(C)COP(=O)(O)OP(=O)(O)OC[C@H]1O[C@@H](n2cnc3c(N)ncnc32)[C@H](O)[C@@H]1OP(=O)(O)O; settings: 10 mM HEPES pH 7.5, 50 mM KCl, 0.3 mM DTNB, room temperature in methods (37 °C in Fig. 1 legend)
From the text: as §1

B1: ptTES1 (Phaeodactylum tricornutum CCAP 1055/1) (protein)
chain: MGLIHTPRTIVSIAKGLWKRRQGTVDWPGLGPDKPYVYNARLGLFDVDYLGHLNNAAYLSHAELARWELTAANGMLTSMLQSGTNFIVSGSCIRYRQEIRPVFRKFQVDTYVAGLDQRTIWMVQNFRYPGQNERIRAQMIVQGVAVQKTKGIIDPRSFFVDTVGMPSDLIESVNLPITSDDTVEDVLERYSFLEKALRRAATVDDELQKKEANKE
notes: codon-optimized synthetic gene in pET28a, His6-tagged, E. coli Rosetta (DE3), Ni-NTA purified, about 25 kDa on SDS-PAGE; tag removal not mentioned
[1]
  Km: 38.61 µM
  Vmax: 0.0164 µmol/min/mg
  kcat: 0.0071 s⁻¹
  kcat/Km: 184 M⁻¹ s⁻¹
[2]
  Km: 21.79 µM
  Vmax: 0.0302 µmol/min/mg
  kcat: 0.0131 s⁻¹
  kcat/Km: 602 M⁻¹ s⁻¹
[3]
  Km: 14.76 µM
  Vmax: 0.0453 µmol/min/mg
  kcat: 0.0196 s⁻¹
  kcat/Km: 1330 M⁻¹ s⁻¹
[4]
  Km: 14.64 µM
  Vmax: 0.00205 µmol/min/mg
  kcat: 0.0009 s⁻¹
  kcat/Km: 60.7 M⁻¹ s⁻¹
[5]
  Km: 12.37 µM
  Vmax: 0.0508 µmol/min/mg
  kcat: 0.022 s⁻¹
  kcat/Km: 1780 M⁻¹ s⁻¹
[6]
  Km: 91.76 µM
  Vmax: 0.0228 µmol/min/mg
  kcat: 0.0099 s⁻¹
  kcat/Km: 108 M⁻¹ s⁻¹
[7]
  Km: 8.246 µM
  Vmax: 0.0451 µmol/min/mg
  kcat: 0.0196 s⁻¹
  kcat/Km: 2370 M⁻¹ s⁻¹
